What was measured:
[1] = JC-1 staining in organoids; conditions: glycan lost; control: WT organoids
[2] = MitoSOX staining in organoids; conditions: glycan lost; control: WT organoids
[3] = complex I, III, IV, V activity kits; conditions: glycan lost; control: WT organoids
[4] = Western blot, whole-cell lysate; conditions: glycan changed form; control: WT crypts
[5] = Western blot of lysosome fractions after CCCP; conditions: glycan lost; control: WT organoids
[6] = Western blot of Pink1, pS65-Ub, whole-cell lysate; conditions: glycan lost; control: WT organoids

Protein	other: mitochondrial membrane potential [1]	other: mitochondrial ROS level [2]	expression_or_secretion [4]	other results
N-acyl sphingosine amidohydrolase 2 (Asah2): Asah2-N444Q (protein) parent chain: MAKRTFSTLEAFLIFLLVIMTVITVALLTLLFVTSGTIENHKDSGNHWFSTTLGSTTTQPPPITQTPNFPSFRNFSGYYIGVGRADCTGQVSDINLMGYGKNGQNARGLLTRLFSRAFILADPDGSNRMAFVSVELCMISQRLRLEVLKRLESKYGSLYRRDNVILSAIHTHSGPAGFFQYTLYILASEGFSNRTFQYIVSGIMKSIDIAHTNLKPGKIFINKGNVANVQINRSPSSYLLNPQSERARYSSNTDKEMLVLKLVDLNGEDLGLISWFAIHPVSMNNSNHFVNSDNMGYAAYLFEQEKNKGYLPGQGPFVAGFASSNLGDVSPNILGPHCVNTGESCDNDKSTCPNGGPSMCMASGPGQDMFESTHIIGRIIYQKAKELYASASQEVTGPVLAAHQWVNMTDVSVQLNATHTVKTCKPALGYSFAAGTIDGVSGLNITQGTTEGDPFWDTLRDQLLGKPSEEIVECQKPKPILLHSGELTIPHPWQPDIVDVQIVTVGSLAIAAIPGELTTMSGRRFREAIKKEFALYGMKDMTVVIAGLSNVYTHYITTYEEYQAQRYEAASTIYGPHTLSAYIQLFRDLAKAIATDTVANMSSGPEPPFFKNLIASLIPNIADRAPIGKHFGDVLQPAKPEYRVGEVVEVIFVGANPKNSAENQTHQTFLTVEKYEDSVADWQIMYNDASWETRFYWHKGILGLSNATIYWHIPDTAYPGIYRIRYFGHNRKQELLKPAVILAFEGISSPFEVVTT	decreases	increases		other: respiratory chain complex activity [3]: decreases
N-acyl sphingosine amidohydrolase 2 (Asah2): Fut2ΔISC (protein) parent chain: MAKRTFSTLEAFLIFLLVIMTVITVALLTLLFVTSGTIENHKDSGNHWFSTTLGSTTTQPPPITQTPNFPSFRNFSGYYIGVGRADCTGQVSDINLMGYGKNGQNARGLLTRLFSRAFILADPDGSNRMAFVSVELCMISQRLRLEVLKRLESKYGSLYRRDNVILSAIHTHSGPAGFFQYTLYILASEGFSNRTFQYIVSGIMKSIDIAHTNLKPGKIFINKGNVANVQINRSPSSYLLNPQSERARYSSNTDKEMLVLKLVDLNGEDLGLISWFAIHPVSMNNSNHFVNSDNMGYAAYLFEQEKNKGYLPGQGPFVAGFASSNLGDVSPNILGPHCVNTGESCDNDKSTCPNGGPSMCMASGPGQDMFESTHIIGRIIYQKAKELYASASQEVTGPVLAAHQWVNMTDVSVQLNATHTVKTCKPALGYSFAAGTIDGVSGLNITQGTTEGDPFWDTLRDQLLGKPSEEIVECQKPKPILLHSGELTIPHPWQPDIVDVQIVTVGSLAIAAIPGELTTMSGRRFREAIKKEFALYGMKDMTVVIAGLSNVYTHYITTYEEYQAQRYEAASTIYGPHTLSAYIQLFRDLAKAIATDTVANMSSGPEPPFFKNLIASLIPNIADRAPIGKHFGDVLQPAKPEYRVGEVVEVIFVGANPKNSAENQTHQTFLTVEKYEDSVADWQIMYNDASWETRFYWHKGILGLSNATIYWHIPDTAYPGIYRIRYFGHNRKQELLKPAVILAFEGISSPFEVVTT			no change	
Niemann–Pick type C intracellular cholesterol transporter 1 (Npc1): Npc1-N961Q (protein) parent chain: MGAHHPALGLLLLLLCPAQVFSQSCVWYGECGIATGDKRYNCKYSGPPKPLPKDGYDLVQELCPGLFFDNVSLCCDIQQLQTLKSNLQLPLQFLSRCPSCFYNLMTLFCELTCSPHQSQFLNVTATEDYFDPKTQENKTNVKELEYFVGQSFANAMYNACRDVEAPSSNEKALGLLCGRDARACNATNWIEYMFNKDNGQAPFTIIPVFSDLSILGMEPMRNATKGCNESVDEVTGPCSCQDCSIVCGPKPQPPPPPMPWRIWGLDAMYVIMWVTYVAFLFVFFGALLAVWCHRRRYFVSEYTPIDSNIAFSVNSSDKGEASCCDPLGAAFDDCLRRMFTKWGAFCVRNPTCIIFFSLAFITVCSSGLVFVQVTTNPVELWSAPHSQARLEKEYFDKHFGPFFRTEQLIIQAPNTSVHIYEPYPAGADVPFGPPLNKEILHQVLDLQIAIESITASYNNETVTLQDICVAPLSPYNKNCTIMSVLNYFQNSHAVLDSQVGDDFYIYADYHTHFLYCVRAPASLNDTSLLHGPCLGTFGGPVFPWLVLGGYDDQNYNNATALVITFPVNNYYNDTERLQRAWAWEKEFISFVKNYKNPNLTISFTAERSIEDELNRESNSDVFTVIISYVVMFLYISLALGHIQSCSRLLVDSKISLGIAGILIVLSSVACSLGIFSYMGMPLTLIVIEVIPFLVLAVGVDNIFILVQTYQRDERLQEETLDQQLGRILGEVAPTMFLSSFSETSAFFFGALSSMPAVHTFSLFAGMAVLIDFLLQITCFVSLLGLDIKRQEKNHLDILCCVRGADDGQGSHASESYLFRFFKNYFAPLLLKDWLRPIVVAVFVGVLSFSVAVVNKVDIGLDQSLSMPNDSYVIDYFKSLAQYLHSGPPVYFVLEEGYNYSSRKGQNMVCGGMGCDNDSLVQQIFNAAELDTYTRVGFAPSSWIDDYFDWVSPQSSCCRLYNVTHQFCNASVMDPTCVRCRPLTPEGKQRPQGKEFMKFLPMFLSDNPNPKCGKGGHAAYGSAVNIVGDDTYIGATYFMTYHTILKTSADYTDAMKKARLIASNITETMRSKGSDYRVFPYSVFYVFYEQYLTIIDDTIFNLSVSLGSIFLVTLVVLGCELWSAVIMCITIAMILVNMFGVMWLWGISLNAVSLVNLVMSCGISVEFCSHITRAFTMSTKGSRVSRAEEALAHMGSSVFSGITLTKFGGIVVLAFAKSQIFEIFYFRMYLAMVLLGATHGLIFLPVLLSYIGPSVNKAKRHTTYERYRGTERERLLNF	decreases	increases		other: mitophagy, delivery of mitochondrial proteins to lysosomes [5]: decreases; other: mitophagy activation by CCCP [6]: no change
Niemann–Pick type C intracellular cholesterol transporter 1 (Npc1): Fut2ΔISC (protein) parent chain: MGAHHPALGLLLLLLCPAQVFSQSCVWYGECGIATGDKRYNCKYSGPPKPLPKDGYDLVQELCPGLFFDNVSLCCDIQQLQTLKSNLQLPLQFLSRCPSCFYNLMTLFCELTCSPHQSQFLNVTATEDYFDPKTQENKTNVKELEYFVGQSFANAMYNACRDVEAPSSNEKALGLLCGRDARACNATNWIEYMFNKDNGQAPFTIIPVFSDLSILGMEPMRNATKGCNESVDEVTGPCSCQDCSIVCGPKPQPPPPPMPWRIWGLDAMYVIMWVTYVAFLFVFFGALLAVWCHRRRYFVSEYTPIDSNIAFSVNSSDKGEASCCDPLGAAFDDCLRRMFTKWGAFCVRNPTCIIFFSLAFITVCSSGLVFVQVTTNPVELWSAPHSQARLEKEYFDKHFGPFFRTEQLIIQAPNTSVHIYEPYPAGADVPFGPPLNKEILHQVLDLQIAIESITASYNNETVTLQDICVAPLSPYNKNCTIMSVLNYFQNSHAVLDSQVGDDFYIYADYHTHFLYCVRAPASLNDTSLLHGPCLGTFGGPVFPWLVLGGYDDQNYNNATALVITFPVNNYYNDTERLQRAWAWEKEFISFVKNYKNPNLTISFTAERSIEDELNRESNSDVFTVIISYVVMFLYISLALGHIQSCSRLLVDSKISLGIAGILIVLSSVACSLGIFSYMGMPLTLIVIEVIPFLVLAVGVDNIFILVQTYQRDERLQEETLDQQLGRILGEVAPTMFLSSFSETSAFFFGALSSMPAVHTFSLFAGMAVLIDFLLQITCFVSLLGLDIKRQEKNHLDILCCVRGADDGQGSHASESYLFRFFKNYFAPLLLKDWLRPIVVAVFVGVLSFSVAVVNKVDIGLDQSLSMPNDSYVIDYFKSLAQYLHSGPPVYFVLEEGYNYSSRKGQNMVCGGMGCDNDSLVQQIFNAAELDTYTRVGFAPSSWIDDYFDWVSPQSSCCRLYNVTHQFCNASVMDPTCVRCRPLTPEGKQRPQGKEFMKFLPMFLSDNPNPKCGKGGHAAYGSAVNIVGDDTYIGATYFMTYHTILKTSADYTDAMKKARLIASNITETMRSKGSDYRVFPYSVFYVFYEQYLTIIDDTIFNLSVSLGSIFLVTLVVLGCELWSAVIMCITIAMILVNMFGVMWLWGISLNAVSLVNLVMSCGISVEFCSHITRAFTMSTKGSRVSRAEEALAHMGSSVFSGITLTKFGGIVVLAFAKSQIFEIFYFRMYLAMVLLGATHGLIFLPVLLSYIGPSVNKAKRHTTYERYRGTERERLLNF			no change	
basigin (Bsg): Bsg-N306Q (protein) parent chain: MAAALLLALAFTLLSGQGACAAAGFLKAPLSQERWAGGSVVLHCEAVGSPIPEIQWWFEGNAPNDSCSQLWDGARLDRVHIHAAYRQHAASSLSVDGLTAEDTGTYECRASSDPDRNHLTRPPRVKWVRAQASVVVLEPGTIQTSVQEVNSKTQLTCSLNSSGVDIVGHRWMRGGKVLQEDTLPDLHTKYIVDADDRSGEYSCIFLPEPVGRSEINVEGPPRIKVGKKSEHSSEGELAKLVCKSDASYPPITDWFWFKTSDTGEEEAITNSTEANGKYVVVSTPEKSQLTISNLDVNVDPGTYVCNATNAQGTTRETISLRVRSRMAALWPFLGIVAEVLVLVTIIFIYEKRRKPDQTLDEDDPGAAPLKGSGTHMNDKDKNVRQRNAT	no change	no change		
basigin (Bsg): Fut2ΔISC (protein) parent chain: MAAALLLALAFTLLSGQGACAAAGFLKAPLSQERWAGGSVVLHCEAVGSPIPEIQWWFEGNAPNDSCSQLWDGARLDRVHIHAAYRQHAASSLSVDGLTAEDTGTYECRASSDPDRNHLTRPPRVKWVRAQASVVVLEPGTIQTSVQEVNSKTQLTCSLNSSGVDIVGHRWMRGGKVLQEDTLPDLHTKYIVDADDRSGEYSCIFLPEPVGRSEINVEGPPRIKVGKKSEHSSEGELAKLVCKSDASYPPITDWFWFKTSDTGEEEAITNSTEANGKYVVVSTPEKSQLTISNLDVNVDPGTYVCNATNAQGTTRETISLRVRSRMAALWPFLGIVAEVLVLVTIIFIYEKRRKPDQTLDEDDPGAAPLKGSGTHMNDKDKNVRQRNAT			no change	

Reference: publication PMC10976588
